Test results published in publication PMC12416549 (2024).
Residue numbers refer to the chain shown, from its start. Numbers in names are those of the source.

T1: TNFR1 (Homo sapiens, UniProt P19438)
T1 chain: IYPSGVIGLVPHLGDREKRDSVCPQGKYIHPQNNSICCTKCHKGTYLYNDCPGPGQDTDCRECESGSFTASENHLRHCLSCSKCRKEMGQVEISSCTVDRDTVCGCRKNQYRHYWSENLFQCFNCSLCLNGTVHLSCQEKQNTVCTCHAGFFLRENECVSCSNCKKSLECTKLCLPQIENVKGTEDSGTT

B1: S80F (designed binder)
chain: SMEEEVEKAAKEYEKKKKEAIEKHLEKLKAKDKEAAERFLKELEEAAKEYAKDEAKTMSEEEAKRRAKKYKEKVLLSELFEEEQKEIKEAEEKLVRTILKYVEEAAK
B2: E14F (designed binder)
chain: B1 chain with E14F, F80S
B3: K85T (designed binder)
chain: B1 chain with F80S, K85T
B4: E60S (designed binder)
chain: B1 chain with E60S, F80S
B5: L40Y (designed binder)
chain: B1 chain with L40Y, F80S
B6: K107N (designed binder)
chain: B1 chain with F80S, K107N
B7: K85R (designed binder)
chain: B1 chain with F80S, K85R
B8: E42T (designed binder)
chain: B1 chain with E42T, F80S
B9: V6M (designed binder)
chain: B1 chain with V6M, F80S
B10: E45Q (designed binder)
chain: B1 chain with E45Q, F80S
B11: E44W (designed binder)
chain: B1 chain with E44W, F80S
B12: E103N (designed binder)
chain: B1 chain with F80S, E103N
B13: E5T (designed binder)
chain: B1 chain with E5T, F80S
B14: E22H (designed binder)
chain: B1 chain with E22H, F80S
B15: E83P (designed binder)
chain: B1 chain with F80S, E83P
B16: L76M (designed binder)
chain: B1 chain with L76M, F80S
B17: E82S (designed binder)
chain: B1 chain with F80S, E82S
B18: E72Q (designed binder)
chain: B1 chain with E72Q, F80S
B19: L79D (designed binder)
chain: B1 chain with L79D, F80S
B20: K11S (designed binder)
chain: B1 chain with K11S, F80S
B21: K29R (designed binder)
chain: B1 chain with K29R, F80S
B22: E92N (designed binder)
chain: B1 chain with F80S, E92N
B23: E92P (designed binder)
chain: B1 chain with F80S, E92P
B24: H24R (designed binder)
chain: B1 chain with H24R, F80S
B25: S59Q (designed binder)
chain: B1 chain with S59Q, F80S
B26: E86D (designed binder)
chain: B1 chain with F80S, E86D
B27: I21C (designed binder)
chain: B1 chain with I21C, F80S
B28: V95K (designed binder)
chain: B1 chain with F80S, V95K
B29: E44V (designed binder)
chain: B1 chain with E44V, F80S
B30: I98A (designed binder)
chain: B1 chain with F80S, I98A
B31: A20I (designed binder)
chain: B1 chain with A20I, F80S
B32: E19H (designed binder)
chain: B1 chain with E19H, F80S
B33: M2W (designed binder)
chain: B1 chain with M2W, F80S
B34: K100G (designed binder)
chain: B1 chain with F80S, K100G
B35: K33I (designed binder)
chain: B1 chain with K33I, F80S
B36: E5Y (designed binder)
chain: B1 chain with E5Y, F80S
B37: K23M (designed binder)
chain: B1 chain with K23M, F80S
B38: T97E (designed binder)
chain: B1 chain with F80S, T97E
B39: A47R (designed binder)
chain: B1 chain with A47R, F80S
B40: L28T (designed binder)
chain: B1 chain with L28T, F80S

Molecular target: T1, TNFR1
Assay: yeast display SC50

Binder | apparent Kd (screen) [nM]
B1 | 2.73
B2 | 29.5
B3 | 0.49
B4 | 1.54
B5 | 0.869
B6 | 1.54
B7 | 0.593
B8 | 9.41
B9 | 2.73
B10 | 1.05
B11 | 3.3
B12 | 0.49
B13 | 0.446
B14 | 0.539
B15 | 3.3
B16 | 0.869
B17 | 0.49
B18 | 2.05
B19 | 16.7
B20 | 0.49

Binder | apparent Kd (screen) [nM]
B21 | 0.539
B22 | 1.05
B23 | 7.78
B24 | 1.05
B25 | 1.16
B26 | 0.49
B27 | 0.49
B28 | 3.63
B29 | 0.446
B30 | 1.69
B31 | 0.539
B32 | 0.49
B33 | 0.446
B34 | 0.277
B35 | 0.79
B36 | 1.54
B37 | 0.869
B38 | 1.69
B39 | 0.49
B40 | 0.79
